From US20160362487A1 (Regeneron, published 2016)

T1: cynomolgus monkey IL-33 expressed with a C-terminal hexahistidine tag (cynomolgus monkey)
T1 construct: also called MfIL-33-6His; Mf-IL-33-6His
T1 chain: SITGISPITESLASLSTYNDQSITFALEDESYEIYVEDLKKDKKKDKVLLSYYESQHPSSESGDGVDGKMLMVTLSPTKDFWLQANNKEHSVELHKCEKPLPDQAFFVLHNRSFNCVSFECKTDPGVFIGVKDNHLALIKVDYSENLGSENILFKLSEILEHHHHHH

T2: human IL-33 (R&D Systems, #3625-IL-010/CF) (human, UniProt O95760 112-270)
T2 construct: Commercial recombinant protein; also called hIL-33; interleukin-33
T2 sequence (looked up): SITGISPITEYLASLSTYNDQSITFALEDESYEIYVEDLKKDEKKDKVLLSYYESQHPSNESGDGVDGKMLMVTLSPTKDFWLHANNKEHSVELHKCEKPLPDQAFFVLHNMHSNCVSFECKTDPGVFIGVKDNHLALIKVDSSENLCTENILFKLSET


How the values were obtained:
[1] = molecular target: T1, cynomolgus monkey IL-33 expressed with …; assay: competition ELISA, 150 pM MfIL-33-6His on coated hST2-hFc
Experimental: The ability of anti-IL-33 antibodies to block either human IL-33 (hIL-33) or cynomologus monkey IL-33 binding to the human ST2 receptor was measured using a competition sandwich ELISA. […] The antibody/IL-33 mixtures were incubated for 1 hour at room temperature before they were transferred to the hST2-hFc-coated microtiter plates. After incubating for 1 hour at room temperature, the wells were then washed, and plate-bound biotin-hIL-33 was detected with streptavidin conjugated with horse-radish peroxidase (HRP) (Thermo Scientific, Cat # N200), and plate-bound MfIL-33-6His was detected with a HRP conjugated anti-His monoclonal antibody (Qiagen, #34460). All samples were developed with a TMB solution (BD biosciences, #51-2607KC) to produce a colorimetric reaction and then quenched by acidification with 1M sulfuric acid before measuring absorbance at 450 nm on a Victor X5 plate reader. Data analysis was performed using a sigmoidal dose-response model within Prism™ software. […] Percent blockade was calculated as the ratio of the reduction in signal observed in the presence of antibody relative to the difference between the signal with IL-33 alone and background (signal from HRP-conjugated secondary antibody or streptavidin alone). The absorbance measured for the constant concentration of biotin-hIL-33 or MfIL-33-6His alone is defined as 0% blocking and the absorbance measured for no added IL-33 is defined as 100% blocking.

[2] = molecular target: T2, human IL-33 (R&D Systems, …); assay: BLI; hIL-33 pre-mixed with mAb-2 Isotype control 2
Experimental: (§1) Binding competition between a panel of different anti-IL-33 monoclonal antibodies was determined using a real time, label-free bio-layer interferometry assay on an Octet® HTX biosensor (ForteBio, A Division of Pall Life Sciences). The experiment was performed at 25° C. using a buffer of 0.01M HEPES pH7.4, 0.15M NaCl, 0.05% v/v Surfactant Tween-20, and 0.1 mg/ml BSA (HBS-ET kinetics buffer) with the plate shaking at a speed of 1000 rpm. To assess whether two antibodies were able to compete with one another for binding to human IL-33, a pre-mix assay format was used where 100 nM of human IL-33 (R&D Systems; #3625-IL-010/CF) was pre-mixed with 500 nM of different anti-IL-33 monoclonal antibodies (subsequently referred to as mAb-2) for at least 2 hours prior to running the binding competition assay. […] Following the capture step, unoccupied anti-mouse Fc polyclonal antibody and anti-human Fc polyclonal antibody on the Octet biosensors were saturated by submerging them for 4 minutes into wells containing 200 μg/mL of a non-specific monoclonal antibody with a mouse Fc or with a human Fc, respectively. Finally, the Octet biosensors were immersed for 4 minutes into wells containing the pre-mixed samples of 100 nM of human IL-33 and 500 nM of mAb-2. At the end of each cycle, the non-covalently captured anti-IL-33 antibodies along with the bound pre-complex of human IL-33 and mAb-2 were removed from the biosensors using three alternate 20 second immersions into 10 mM HCl followed by submerging into HBS-ET kinetics buffer. The biosensors were washed in HBS-ET kinetics buffer in between every step of the experiment. The real-time binding response was monitored during the binding events, and the binding response (in units of nm) at the end of every step was recorded.

[3] = molecular target: T2, human IL-33 (R&D Systems, …); assay: SPR 25C, pH6.0 chase, mAb captured
Experimental: (§2) Equilibrium dissociation constants (KD values) for IL-33 binding to purified anti-IL-33 monoclonal antibodies were determined using a real-time surface plasmon resonance biosensor using a Biacore 4000 instrument. The Biacore sensor surface was first derivatized by amine coupling with either a polyclonal rabbit anti-mouse antibody (GE, # BR-1008-38) or with a monoclonal mouse anti-human Fc antibody (GE, # BR-1008-39) to capture anti-IL-33 monoclonal antibodies expressed with mouse or with human IgG4 constant regions, respectively. All Biacore binding studies were performed in 0.01M ADA pH 7.4, 0.15M NaCl, 3 mM EDTA, and 0.05% v/v Surfactant Tween-20 (ABS-ET running buffer). […] Association of either hIL-33 or MfIL-33-6His to the captured monoclonal antibody was monitored for 4 minutes and their dissociation in ABS-ET running buffer was monitored for 10 minutes. The effect of reduced pH on the binding of each anti-IL-33 antibody to either hIL-33 or MfIL-33-6His was studied using an in-line pH chase assay format in 0.01M ADA pH 6.0, 0.15M NaCl, 3 mM EDTA, and 0.05% v/v Surfactant Tween-20 (ABS-ET pH6 buffer). To achieve this, association of either hIL-33 or MfIL-33-6His to the captured monoclonal antibody was monitored for 4 minutes in ABS-ET running buffer. Following a 30 second dissociation of either hIL-33 or MfIL-33-6His in ABS-ET running buffer, ABS-ET pH6 buffer was injected for 3 minutes, and the analyte dissociation under the low-pH conditions was measured. All the binding kinetic experiments were performed at both 25° C. and 37° C. Kinetic association (kₐ) and dissociation (kd) constants were determined by fitting the real-time sensorgrams to a 1:1 binding model using Scrubber 2.0c curve fitting software. Binding dissociation equilibrium constants (KD) and dissociative half-lives (t½) were calculated from the kinetic rate constants as: […]

[4] = molecular target: T1, cynomolgus monkey IL-33 expressed with …; assay: SPR 25C, pH6.0 chase, mAb captured
Experimental: as §2

[5] = molecular target: T2, human IL-33 (R&D Systems, …); assay: BLI; hIL-33 pre-mixed with mAb-2 Isotype control 1
Experimental: as §1

Binder | % Maximum blocking [1] | IC50 [1] | mAb-1 Binding to the Pre-complex of mAb-2 & hIL-33 [2] | koff [3] | t½ [3] | t½ Ratio (pH 7.4/pH 6.0) [3] | koff [4] | t½ [4] | t½ Ratio (pH 7.4/pH 6.0) [4] | mAb-1 Binding to the Pre-complex of mAb-2 & hIL-33 [5]
H4H9671P (antibody, human IgG4, V domains shown, Human IgG4 Fc (H4H)) VH: EVQLVESGGGLVQPGGSLRLSCAASGFTLRSYFMTWVRQVPGKGLEGVSAISGISGGTYYTDSVKGRFTISRDNSKNTLFLQMNSLRAEDTAVYFCARTVYSSSYYGGFQHWGQGTLVTVSS VL: DIQMTQSPSSVSVSVGDRVTITCRASQGISSWLAWYQQKPGKAPKLLIYVASSLQSGVPSRFSGSGSGTDFTLTISSLQPEDFATYYCQQTNSFPLTFGGGTKVEIK | 62% | 0.58 nM | 0.07 nm | 0.00162 s⁻¹ | 7 min | 4.6 | 0.00161 s⁻¹ | 7 min | 1.1 | 0.13 nm
H1M9559N (antibody, mouse IgG1, V domains shown, Human variable domains, mouse IgG1 Fc (H1M)) VH: QVQLVESGGGVVQPGRSLRLSCAASGFTFSSYGMHWVRQAPGKGLEWVAVIWYDGRNKYYTDSVKGRFTISRDNSKNTLYLQMDSLRAEDTAVYYCARERYISSYYGGFDPWGQGALVTVSS VL: DIQMTQSPSSVSASVGDRVTITCRASQGISSWLAWYQQKPGKAPKVLIYAASSLQSGVPSRFSGSGSGTDFTLTISSLQPEDFATYYCQQANSFPFTFGPGTKLDIK | 53% | 10 nM | 0.11 nm | 0.000187 s⁻¹ | 62 min | 0.7 | 0.00152 s⁻¹ | 8 min | 1.2 | 0.06 nm
H4H9672P (antibody, human IgG4, V domains shown, Human IgG4 Fc (H4H)) VH: EVQLVESGGGLVQPGGSLRLSCAASGFTLRSYVMYWVRQGPGKGLEGVSGISGSSGGTYYTDSVKGRFTISRDNSKNTLFLQMNSLRAEDTAVYFCARSVYSTTWYGGFQHWGQGTLVTVSS VL: DIQMTQSPSSVSVSVGDRVTITCRASQVISSWLAWYQLKPGKAPKLLIYAASSLQSGVPSRFSGSGSGTDFTLTISGLQPEDFAVYYCQQTNSFPLTFGGGTKVEIK | 48% | 5.5 nM | 0.08 nm | 0.00141 s⁻¹ | 8 min | 4 | 0.00267 s⁻¹ | 4 min | 0.7 | 0.16 nm
H4H9675P (antibody, human IgG4, V domains shown, Human IgG4 Fc (H4H)) VH: EVQLVESGGNLEQPGGSLRLSCTASGFTFSRSAMNWVRRAPGKGLEWVSGISGSGGRTYYADSVKGRFTISRDNSKNTLYLQMNSLSAEDTAAYYCAKDSYTTSWYGGMDVWGHGTTVTVSS VL: DIQMTQSPSSVSASVGDRVTITCRASQGIFSWLAWYQQKPGKAPKLLIYAASSLQSGVPSRFSGSGSGTDFTLTISSLQPEDFAIYYCQQANSVPITFGQGTRLEIK | 72% | 1.5 nM | 0.11 nm | 0.00111 s⁻¹ | 10 min | 4.3 | 0.00156 s⁻¹ | 7 min | 1.2 | 0.13 nm
H4H9676P (antibody, human IgG4, V domains shown, Human IgG4 Fc (H4H)) VH: EVQLVESGGGLVQPGGSLRLSCSASGFTFSSYAMNWVRQAPGKGLEWVTAISGSGGGTYYADSVKGRFTISRDNSKNSLFLQLNSLRAEDTAVYYCAKQTYTSSWYGGFDIWGQGTMVTVSS VL: DIQMTQSPSSVSASVGDRVTITCRASQGFSSWLAWYQQIPGKAPKLLIYAASRLQSGVPSRFRGSGSGTDFTLTISSLQPEDFATYYCQQANSFPLTFGGGTKVEIK | 57% | 3.2 nM | 0.1 nm | 0.00121 s⁻¹ | 10 min | 3.5 | 0.00145 s⁻¹ | 8 min | 0.4 | 0.11 nm
